Results from patent publication CN116178540A (SANYOU BIO INC, dated 2023).

T1: hANG1-Fc (human, UniProt Q15389)
T1 chain: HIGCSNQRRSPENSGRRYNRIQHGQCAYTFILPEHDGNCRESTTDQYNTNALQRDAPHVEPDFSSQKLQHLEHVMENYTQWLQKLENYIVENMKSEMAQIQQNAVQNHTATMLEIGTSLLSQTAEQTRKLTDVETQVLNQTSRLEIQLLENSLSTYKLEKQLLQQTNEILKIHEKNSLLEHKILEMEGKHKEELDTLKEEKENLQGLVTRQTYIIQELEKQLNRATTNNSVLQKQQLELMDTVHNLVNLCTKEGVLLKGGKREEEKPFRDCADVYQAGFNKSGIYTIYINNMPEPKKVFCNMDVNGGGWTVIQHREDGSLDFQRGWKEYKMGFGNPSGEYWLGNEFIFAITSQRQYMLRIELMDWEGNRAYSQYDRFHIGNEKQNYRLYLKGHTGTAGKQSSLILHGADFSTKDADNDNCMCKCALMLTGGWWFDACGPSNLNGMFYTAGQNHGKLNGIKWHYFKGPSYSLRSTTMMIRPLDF

T2: hANG2-Fc (human, UniProt O15123)
T2 chain: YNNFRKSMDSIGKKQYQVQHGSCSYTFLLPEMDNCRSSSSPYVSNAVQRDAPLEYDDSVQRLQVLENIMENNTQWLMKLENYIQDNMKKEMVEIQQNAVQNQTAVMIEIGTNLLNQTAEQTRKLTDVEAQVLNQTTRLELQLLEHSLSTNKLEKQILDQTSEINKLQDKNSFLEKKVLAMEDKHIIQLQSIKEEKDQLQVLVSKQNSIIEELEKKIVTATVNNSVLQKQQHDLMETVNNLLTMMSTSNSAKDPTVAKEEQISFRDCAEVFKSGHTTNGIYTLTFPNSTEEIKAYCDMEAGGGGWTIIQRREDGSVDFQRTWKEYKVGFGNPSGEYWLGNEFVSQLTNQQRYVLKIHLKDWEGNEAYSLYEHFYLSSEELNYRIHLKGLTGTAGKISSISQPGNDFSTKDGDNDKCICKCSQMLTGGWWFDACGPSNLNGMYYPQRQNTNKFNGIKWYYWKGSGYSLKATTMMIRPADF

T3: hANG2-His (human, UniProt O15123)
T3 chain: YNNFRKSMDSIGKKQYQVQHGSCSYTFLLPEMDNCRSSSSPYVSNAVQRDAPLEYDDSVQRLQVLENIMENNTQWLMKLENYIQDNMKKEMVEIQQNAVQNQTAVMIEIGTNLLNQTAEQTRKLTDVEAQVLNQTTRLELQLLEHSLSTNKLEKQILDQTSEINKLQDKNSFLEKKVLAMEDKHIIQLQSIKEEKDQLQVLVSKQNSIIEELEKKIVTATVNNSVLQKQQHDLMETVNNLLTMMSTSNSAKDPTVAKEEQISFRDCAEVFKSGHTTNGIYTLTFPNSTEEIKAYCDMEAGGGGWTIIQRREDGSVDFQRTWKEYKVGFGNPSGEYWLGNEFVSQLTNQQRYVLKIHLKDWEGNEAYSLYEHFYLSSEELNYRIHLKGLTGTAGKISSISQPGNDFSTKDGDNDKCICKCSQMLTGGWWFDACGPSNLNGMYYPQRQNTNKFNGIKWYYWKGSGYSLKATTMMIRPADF

T4: hANG2-His (human, UniProt O15123 19-496, limits assumed)
T4 construct: also called 人源ANG2; ANGPT2; not shown: C-terminal His tag
T4 sequence (looked up): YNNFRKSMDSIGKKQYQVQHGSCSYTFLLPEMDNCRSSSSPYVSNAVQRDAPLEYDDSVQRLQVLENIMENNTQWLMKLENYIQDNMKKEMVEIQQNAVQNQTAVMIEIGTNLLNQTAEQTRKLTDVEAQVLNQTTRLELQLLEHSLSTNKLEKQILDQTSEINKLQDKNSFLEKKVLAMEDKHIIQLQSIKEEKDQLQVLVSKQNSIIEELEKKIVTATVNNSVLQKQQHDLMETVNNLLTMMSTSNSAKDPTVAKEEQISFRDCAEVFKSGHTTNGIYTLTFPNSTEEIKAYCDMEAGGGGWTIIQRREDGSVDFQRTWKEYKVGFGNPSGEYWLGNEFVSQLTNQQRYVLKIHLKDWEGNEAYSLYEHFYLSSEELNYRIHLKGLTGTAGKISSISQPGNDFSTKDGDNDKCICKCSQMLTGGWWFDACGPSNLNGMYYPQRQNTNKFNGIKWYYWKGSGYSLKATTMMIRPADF

B1: nesvacumab (antibody, V domains shown)
VH: EVQLVESGGGLVQPGGSLRLSCAASGFTFSSYDIHWVRQATGKGLEWVSAIGPAGDTYYPGSVKGRFTISRENAKNSLYLQMNSLRAGDTAVYYCARGLITFGGLIAPFDYWGQGTLVTVSS
VL: EIVLTQSPGTLSLSPGERATLSCRASQSVSSTYLAWYQQKPGQAPRLLIYGASSRATGIPDRFSGSGSGTDFTLTISRLEPEDFAVYYCQHYDNSQTFGQGTKVEIK
B2: 抗体78A74-25 (antibody, IgG1, V domains shown)
VH: QVQLVESGGGLVKPGGSLRLSCAASGFTFSSYSMNWVRQAPGKGLEWVAVISYDGSNKYYADSVKGRFTISRDNSKNTLYLQMNSLRAEDTAVYYCAKATLDGYTAGYYYGMDVWGQGTTVTVSS
VL: EIVLTQSPATLSLSPGERATLSCRASQSVSSYLAWYQQKPGQAPRLLIYDASNRATGIPARFSGSGSGTDFTLTISSLEPEDFAVYYCQQRSNWPPELYFGQGTKVEIK
B3: 抗体78A74-21 (antibody, IgG1, V domains shown)
VH: QVQLVESGGGLVKPGGSLRLSCAASGFTFSSYSMNWVRQAPGKGLEWVAVISYDGSNKYYADSVKGRFTISRDNSKNTLYLQMNSLRAEDTAVYYCAKETLDGYTAGYYYGMDVWGQGTTVTVSS
VL: EIVLTQSPATLSLSPGERATLSCRASQSVGSYLAWYQQKPGQAPRLLIYDASNRATGIPARFSGSGSGTDFTLTISSLEPEDFAVYYCQQRSNGPPEWTFGQGTKVEIK
B4: 抗体78A74-36 (antibody, IgG1, V domains shown)
VH: QVQLVESGGGLVKPGGSLRLSCAASGFTFSSYSMNWVRQAPGKGLEWVAVISYDGSNKYYADSVKGRFTISRDNSKNTLYLQMNSLRAEDTAVYYCAKATLDGYTAGYYYGMDVWGQGTTVTVSS
VL: EIVLTQSPATLSLSPGERATLSCRASQSVSSYLAWYQQKPGQAPRLLIYDASNRATGIPARFSGSGSGTDFTLTISSLEPEDFAVYYCQQRTMWPPEWTFGQGTKVEIK
B5: 抗体78A74-35 (antibody, IgG1, V domains shown)
VH: QVQLVESGGGLVKPGGSLRLSCAASGFTFSSYSMNWVRQAPGKGLEWVAVISYDGSNKYYADSVKGRFTISRDNSKNTLYLQMNSLRAEDTAVYYCAKATLDGYTAGYYYGMDVWGQGTTVTVSS
VL: EIVLTQSPATLSLSPGERATLSCRASQSVSSYLAWYQQKPGQAPRLLIYDASNRATGIPARFSGSGSGTDFTLTISSLEPEDFAVYYCQQRSNWPPAMTFGQGTKVEIK
B6: 抗体78A74-7 (antibody, IgG1, V domains shown)
VH: QVQLVESGGGLVKPGGSLRLSCAASGFTFSSYSMNWVRQAPGKGLEWVAVISYDGSNKYYADSVKGRFTISRDNSKNTLYLQMNSLRAEDTAVYYCAKATLDGYTAGYYYGMDVWGQGTTVTVSS
VL: EIVLTQSPATLSLSPGERATLSCRASQSVSSYLAWYQQKPGQAPRLLIYDASNRATGIPARFSGSGSGTDFTLTISSLEPEDFAVYYCQLMSNWPPEWTFGQGTKVEIK
B7: 17 (antibody, V domains shown)
VH: EVQLVESGGGVVKPGGSLRLSCAASGFTFNKYTINWVRQTPGKGLELVADISSGGDYVNYADSVKGRFTISRDNAKDSVYLLMNGLRAEDTAVYYCARDALTYSNNWLDSWGQGTLVTVSS
VL: DIQLTQSPSFLSASVGDRVTITCRASQGISSYLAWYQQKPGKAPKLLIYAASTLQSGVPSRFSGGGYGTDFTLTISSLQPEDFATYYCQQFESYPLTFGGGTRLEIK

Columns and labels:
[1] = target: T1, hANG1-Fc; assay: ELISA
[2] = target: T2, hANG2-Fc; assay: FACS competition (TIE2-HEK293)
[3] = target: T2, hANG2-Fc; assay: competition ELISA (TIE2 blocking)
[4] = target: T3, hANG2-His; assay: BLI
[5] = target: T3, hANG2-His; assay: ELISA
[6] = target: T4, hANG2-His; assay: BLI (Gator), antibody captured on sensor, hANG2-His 100/50/25 nM
[7] = target: T4, hANG2-His; assay: as above; remark: listed apart in the source

| Binder | binding result [1] | IC50 [2] [µg/mL] | IC50 [3] [µg/mL] | Kd [4] [nM] | EC50 [5] [µg/mL] | fold affinity against nesvacumab [6] [fold] | Kd [7] [nM] | koff [7] [s⁻¹] | kon [7] [M⁻¹ s⁻¹] |
| --- | --- | --- | --- | --- | --- | --- | --- | --- | --- |
| B1 | no binding | 0.362 | 1.58 | 1.17 | 0.442 |  |  |  |  |
| B2 |  |  |  |  |  | ~2 | 0.828 | 0.000161 | 194000 |
| B3 |  |  |  |  |  | ~2 | 0.687 | 0.000132 | 192000 |
| B4 |  |  |  |  |  |  | 1.32 | 0.000263 | 200000 |
| B5 |  |  |  |  |  |  | 1.52 | 0.000284 | 187000 |
| B6 |  |  |  |  |  | ~2 | 0.544 | 0.000103 | 189000 |
| B7 | no binding | 0.323 | 0.547 |  | 0.12 |  |  |  |  |
